Reference: a protein production outcome set (Wang et al. 2014)

Assay: label from the status in PepcDB records

Question: Which protein production does the source give for “MAYITYQQYLDLYGTCPISEEEFPVYAGLASDMIDSITRYRIVEGGGISALPSILQTLVQKAAAAQVLYFTQIGLETVLTGQAGQSFTVGKVSVSGGALSSTTTKPGALMVSPFALSLLEQTPLMERGVHVCSDRFLNPFWGILEHHHHHH” here?
Answer: failed

Question: With “MAYNPKILQKPKEGEEITIKDNKLHVPNHPIIPFIEGDGIGSDITPAMIKVVDSAVQKAYKGEKKIAWYEVFVGEKCYQKFKDYKELSPEEQWLLPDTIEAINHYKVSIKGPLTTPIGEGFRSLNVALRQKMDLYVCLRPVRWYGSPSPVKEPQKVDMVIFRENSEDIYAGIEWQEGSAEAKKLIHFLQNELKVKKIRFPESSGIGVKPISKEGTERLVRKAIEYAIDNDKPSVTFVHKGNIMKYTEGAFMKWGYALAQKEFNAQVIDKGPWCSLKNPKNGKEIIIKDMIADAFLQQILLRPSEYSVIATMNLNGDYISDALAAMVGGIGIAPGANLNDTVGMFEATHGTAPKYAGLDKVNPGSIILSAEMMLRHMGWVEAADLIVSAMEKAIKSKKVTYDFARLMDGAKEVKCSEFASVMIENM” as the sequence, how does the protein production read?
Answer: failed

Question: Which protein production does the source give for “MAYSACFLHQSALASSAARSSSSSSSQRHVSLSKPVQIICKAQQSHEDDNSAVSRRLALTLLVGAAAVGSKVSPADAAYGEAANVFGKPKTNTDFLPYNGDGFKVQVPAKWNPSKEIEYPGQVLRFEDNFDATSNLNVMVTPTDKKSITDYGSPEEFLSQVNYLLGKQAYFGETASEGGFDNNAVATANILESSSQEVGGKPYYYLSVLTRTADGDEGGKHQLITATVNGGKLYICKAQAGDKRWFKGARKFVESAATSFSVA” here?
Answer: failed

Question: Which protein production does the source give for “MAYTDPAQRNQVTVLQVGYSRQEEGDESAMRANCTCTLVRCRDGTNIIVDTLTAWDGDHLRSLLGQQGLGVDDIHVVVCSHGHSDHIGCNYLFQKARMHLVGACASHHDLYMDHLGSGNPDEQLALDSNAEVVVRRSPGHTLSCVSVLVENSQLGGRVGITGDLFERREDIDDENIWMDAGSENEKVQREERSKMAQLCEFIIPGHGPMFSVTQSMRCKLKEDATSNT” here?
Answer: failed

Question: For “MAYVLTETSAGYALLKASDKKIYKSSSLIQDLDSSDKVLKEFKIAAFSKFNSAANALEEANSIIEGKVSSQLEKLLEEIKKDKKSTLIVSETKLANAINKLGLNFNVVSDAVTLDIYRAIKEYLPELLPGMSDNDLSKMSLGLAHSIGRHKLKFSADKVDVMIIQAIALLDDLDKELNTYAMRCKEWYGWHFPELAKIVTDSVAYARIILTMGIRSKASETDLSEILPEEIEERVKTAAEVSMGTEITQTDLDNINALAEQIVEFAAYREQLSNYLSARMKAIAPNLTQLVGELVGARLIAHSGSLISLAKSPASTIQILGAEKALFRALKTKHDTPKYGLLYHASLVGQATGKNKGKIARVLAAKAAVSLRYDALAEDRDDSGDIGLESRAKVENRLSQLEGRDLRTTPKVVREAKKVEMTEARAYNADADTAKAASDSESDSDDEEEEKKEKKEKKRKRDDDEDSKDSKKAKKEKKDKKEKKEKKEKKEKKEKKEKKEKKSKKEKKEKK”, which protein production is on record?
Answer: failed

Question: For “MCAEFVERRLAAILAADVVGYSRLLEANEEETLNALRQHRRELFDPAVAIHGGHIIKVMGDGFLVEFGSVLSAARCAVEIQRGMLERNIGIPGDRHFAFRIGLNLGDIVFDEDDFHGDGINVAVRLQALAAPGGIACSAAVRHEVANKLDLGFADQGAMTVKNISRPVHVYFADWGNAPSSEEVPLTAGGHTRAPVNKPSVAVLPFANISNDPEQDFFSDGITEDLITDLSNVSGLFVLSRNTVFTWKGRSENLQRIAAELGVAYIVEGSVRKAGNQVRINAELIEAASDGHVWAARYDRDLTDIFEMQDEIVKAIVGQLKVKLLPEEKRAIEQAPTESVEAYTHFLRGREYYHIASRSNHLMARQSFARAIELDPGYARAYAGIAVCDARLRSQFGAEIPVEDILANTATALVIDPNLAEAYAAKGFALAVAGNRTEAVSAFAQALSLDANCHEANRYYAEFCVTEGQFELAATHFQRAMEIKPADYGAPIMLVNVLRSLGQIDKASSYARIALKRAEEELRLHPENANVACLGATALAFLGVRDTALEWLARSLATDPDDINIQYNAACTYALLGEIDRAIDLLEVWMPQVGIEMRLWFKNDSDLDPIRSHPRYLKLVSLSE”, which protein production is on record?
Answer: failed

Question: Which protein production does the source give for “MCDYDEPLYLISVVAKILGVHPQTLRQYEKEGLIEPSRTDGKMRLYSQRDMDKIKTILRLTRDMGVNLAGVDIILRLKEKLDELDNLNKELQDALHKHSKNTKTPTKNLNTPTNFYELILFKK” here?
Answer: failed

Question: Which protein production does the source give for “MCHSGTFHLTAGESVEWVLTWAPSFEPHPPMPDYTRSLESTLSFWASWVEELPHQRLYDAEVRRSMLVLRALTDLQTGGIVAAPTTSLPEDFGGIRNWDYRYVWLRDSALTIEALVEYGFSQAALQWRTWLLRAIAGDPENLRIMYGLGGERHLPERELQHLRGYENSVPVRVGNGAAEQYQADVVGEVMVALETIRRAGCLEDEFSWGMQKAILDFQEANFDRKDQGIWEMRSEPQYFTHGRAMMWAGFDRGIKAIEEFNLDGPIERWRELRAKLREEIMTNGFNEEIQSFTQCYDNTQVDASLLQLAQIGFIGFDDPKMLSTVARIEQELLDAHGFLHRYHTDGSDGLAGDEYPFLICSFWLVEQYASSNRLDEAKEKMNRILAVQSPLGLLAEEYSTHHGRLAGNYPQAFSHIGLISAARAINFEEARNRLEHHHHHH” here?
Answer: failed

Question: For “MCKPPMRLLTQTGLPRSSERQIRILEIVTGNRKGKHQPKPISKPQPNISMPKIIEAIYENGVFKPLQKVNFRPGSKVRIVIQEDKKEILRKYKGVFGKAEVEELREYEGEVMLLEHHHHHH”, which protein production is on record?
Answer: failed

Question: With “MCLGIPARVVEVLDGPLPMAVVDMAGEQRPCSVMYVPEVQVGQFVLLQNGYAMEVLDEKSAQESLATIAEFNLVQQVQLAPRE” as the sequence, how does the protein production read?
Answer: failed

Question: Which protein production does the source give for “MCPYITRRNDVMNDTFDYIFGYALSTALARYWVNPDGSQGGIVSIDAKIDASVMIGKDAVVFPDANIAERACIAEKVCIGNAVRIGKHAMIDHGASIGDRSNIGERSRIYQDSFIGENAVIAARACIGEKVYIGNFVSLAKDSIIDDGVNIGERSSIGERTRIRQGSFIRKGCVIRQRSVIAKRAYIDEGVYIGNVVRIGEESMIHRRSRIGSGARIGGSVCIGVYCRIDGSVRIGQHADIGEWVNIDGHARIGNFARIGEWSRIGGRANIAAHVVLEKQSIIHSETCIQDASKTSVDMPKDAGI” here?
Answer: failed

Question: Which protein production does the source give for “MCSYARATDANGESFIYCRTWQGQFFRFKLEDRVYDYVTTFAKSDACLATDPDDPTKIYCALNEYNKITCIDLTKNPEDSGFETDVCGIQGPGAYQDGHVSVARLNNPQQILSMHDPETGEKVIYICDANNNCVRMYNMETKLMSTVAGIGGKSGYAAGNPTVSRMNRPYGICITPENDIYVADAGNKVIMKLAFMLEHHHHHH” here?
Answer: failed

Question: For “MCTPFIFVVYAKSKYLCVLISNEMGKNKLEKFADMASYPHVFEYPYSAVDNVPFDMKGKWHQEFFGNDHPIVLELGCGRGEYTVGLGRMFPDKNFIAVDIKGSRMWTGATESLQAGMKNVAFLRTNIEIIERFFAAGEVSEIWLTFSDPQMKKATKRLTSTYFMERYRKFLKPDGIIHLKTDSNFMFTYTKYMIEANQLPVEFITEDLYHSDLVDDILSIKTYYEQQWLDRGLNIKYIKFRLPLEHHHHHH”, which protein production is on record?
Answer: failed

Question: Which protein production does the source give for “MCVHTRKPDGLHPKPVSHCPVIDTGQSEWRSFTFTTICMGFRPRQAYRQPSPIANETENTMSNSNIQQEAQDIHDQLPESVDASPEDIEERLTTLVDDYRVPLDEAQRSVVSTYLSDSDVDRDDVSSENENQQVDLEEITEAEQWVDITAKVADLWEPRSDSIAQVGLLGDETGTIKFTKWAKSDLEALTEGQVYRLGNVVTDEYQGQYSVKLNRTTTIEALDQDIEVGDDTTDAEGALVDIQSGSGLIKRCPEDDCTRVLQNGRCSEHGEGEGEFDLRIKGVIDNGDTVQEVIFDKEATEQVADITLAQAQEMAMDALDTSVVADEIREVTLGRYYRVQGPELGRYLLVNEFEQLAEMHDPEQLLITARSILEHHHHHH” here?
Answer: not failed

Question: Which protein production does the source give for “MCVSSSIQTAILDWQCVDGIDIPVSRQFGDVYFSKDNGLLETRHVFLNGNNLTERLADLKPYQYFCVGETGFGTGLNILAVWQLWQQVRPDNHSHLHVISVEKFPLSKSDLERALRAWPELIILAEQLIEQYPFPIAGCHRLNFPDERFSLDLWLGDAHDVFPSIVKTHSVDAWFLDGFAPSCNPELWETQVLNQIVRLSDYGTTFASFSVAGILKRGLKAHGIHISRPRGFGHKREMLKAIWPFPDHESTTTVKGNQPSTQQHFAVIGAGIAGLHCAWSLAQRGHRVTLVDQSQPLSGASGNPLALLNPKLCPITQCHDHLMVLCWQYARRFYQNFEAFRLIQVNQLALKASDSLLNLAEQYPKDVLDAHSAQQSPLETQYDYLTLHYAGVISPQLFCNQVLQHPLIEFKQFKINQIIEIDGTVQLLSSEQAILESNAAIVCCARESGKLFEQYPTLKPIRGQVSWFEQHTFPFAPDQAFSYGGYCMQLHPQQLILGASFHPQRDDDEVLLEDHVHNFNLIHSVFPAYAQTLPPVEEWHGRASVRAQSPDYFPLVGQLQDHSKLFTLAGLGSKGYLFAPLNSEILVAHILGEACPVSANLLQKLNPQRFLKKVKIKKPYYSS” here?
Answer: failed

Question: With “MDAARFPADARVRVLARRFPPYHRDSPCLAILDRFLHDPTLSAAAVVDDAMRPVGLIDRYSLVEQFLHPYSRDLYHKHSIAAFMDPEPVIVEADSSIDDLSRIIIDAGMRHMVSGFIVTEDGLYLGIGSGHDLFEEVANRKQNHLYHLAHYDPLTSLPNRLLLNDRLKRACLRGQRGGYRIALLFIDLDRFKLVNDTLGHAAGDQLLQGVAGRFAACVRKVDTVARLGGDEFTVLLEPVQGPDEALAVAAKLAQSLERPFLIQNHEITTSASIGVVLFPEHDATVEGLMRKADAAMYCAKREGRNRFALFTEEMNSTVVERVTLESYLNAALEKGEFCCHFQPQMATADDRIVGVEALLRWTNPVLGRVPPLKFIPVAEDTGLILPLGLWALETACAQQVRWLSQGLPPLRMAVNISPLQFRNREFCDQVRAIVQRTGIRAEHLELELTESAVMADAESSVGILRELRDSGIRLAIDDFGTGYSSLSYLRKFPLDRLKIDRSFVSGIDRIPANELIVKAIVALGGSLGLDVIAEGVETPEELECIERCGCSEYQGFRLSEPLTAEDFAHWFEDSGYVLEHHHHHH” as the sequence, how does the protein production read?
Answer: failed

Question: Which protein production does the source give for “MDAEKKSAHFRQISSYKPQLLVLSSIQENPSSKISEKANIKADNDAEIGVFGAEKYFSMKLDHVDSTADITKQHEKENTHDHPNANPNPNPNPHPHPHPQLTKTTSSRSKTSRHGTPSVRSESSCNSQTFLMRINNHNENKQRKMNDTSISFGGFRCYGPCSGVKTVHTDPKNSCKSRNSDRDFVAYDARKHNDKPRLHFEAKKADFHAQEKISLPIQRSDIAMNLERKLSLLTWDAIPNQLSTKNNNHNNNGNNSSMSSNTQEEETASVASSDLFEIENITSSVYEPSEASIGWSVVTGSMADQSVISDFDMMKRVTRNGPVVKTKPVIGEKVRSAGFLSGCKSHKAVSVVDSSRKVKETAKVDHHEMSHQKKFKTEIRIQDLSFL” here?
Answer: failed
